Data from US20250084179A1 (Xencor, published 2025).
Substitutions are numbered along the chain they refer to.

B1: 1C9A4.313 (antibody, V domains shown)
VH: QVQLVQSGAEVKKPGSSVKVSCKASGGTFSNYAIGWVRQAPGQGLEWMGGIVPIFGVADYAQKFQGRVTITADESTSTAYMELSSLRSEDTAVYYCAREGWYLLNYFDYWGQGTLVTVSS
VL: not shown
notes: Phage-derived TROP2 clone; also called 1C9A4.313[TROP2]_H1 with L1
B2: 1B11A3.316 (antibody, V domains shown)
VH: QVQLVQSGAEVKKPGASVKVSCKASGYTFTRYYMHWVRQAPGQGLEWMGIINPGGGSTIYAQKFQGRVTMTRDTSTSTVYMELSSLRSEDTAVYYCARDDVIVDAFDYWGQGTLVTVSS
VL: not shown
notes: Phage-derived TROP2 clone; also called 1B11A3.316[TROP2]_H1 with L1
B3: 1A3A4.312 (antibody, V domains shown)
VH: QVQLVQSGAEVKKPGASVKVSCKASGYTFTRHYMHWVRQAPGQGLEWMGIINPGGGATSYAQKFQGRVTMTRDTSTSTVYMELSSLRSEDTAVYYCAREDYAGKWWGMDYWGQGTLVTVSS
VL: not shown
notes: Phage-derived TROP2 clone; also called 1A3A4.312[TROP2]_H1 with L1
B4: 1B2A4.312 (antibody, V domains shown)
VH: QVQLVQSGAEVKKPGASVKVSCKASGYTFTGSYMHWVRQAPGQGLEWMGIINPSGESTVYAQKFQGRVTMTRDTSTSTVYMELSSLRSEDTAVYYCARDPGGSWPFSYALDYWGQGTLVTVSS
VL: not shown
notes: Phage-derived TROP2 clone; also called 1B2A4.312[TROP2]_H1 with L1
B5: 2C5A3.316 (antibody, V domains shown)
VH: QVQLVQSGAEVKKPGSSVKVSCKASGGTFTTSGISWVRQAPGQGLEWMGGIVPLLGTVNYAQKFQGRVTITADESTSTAYMELSSLRSEDTAVYYCARSGAATDARYGLDYWGQGTLVTVSS
VL: not shown
notes: Phage-derived TROP2 clone; also called 2C5A3.316[TROP2]_H1 with L1
B6: 1F11-1A3.315_H1L1 (antibody, V domains shown)
VH: QVQLVQSGAEVKKPGASVKVSCKASGYTFTRYYMHWVRQAPGQGLEWMGIINPGGGSTGYAQKFQGRVTMTRDTSTSTVYMELSSLRSEDTAVYYCARDDVVAADVFDYWGQGTLVTVSS
VL: not shown
notes: also called 1F11-1A3.315[Trop2]_H1 with L1; copies: 1 + 1
B7: 1F11-1A3.315_H1.19_L1 (antibody, V domains shown)
VH: B6 VH with F29L, N52E, G59T, A103K
VL: not shown
notes: also called 1F11-1A3.315[Trop2]_H1.19 with L1
B8: 1F11-1A3.315_H1.10_L1 (antibody, V domains shown)
VH: B6 VH with N52E, G59T
VL: not shown
notes: also called 1F11-1A3.315[Trop2]_H1.10 with L1
B9: 1A7_H1.125_IGKV1-39_L1 (Fab, V domains shown)
VH: EVQLLESGGGLVQPGGSLRLSCAASGFTFSSYYMSWVRQAPGKGLEWVSTISEHGLSTYYADSVKGRFTISRDNSKNTLYLQMNSLRAEDTAVYYCAKSGPGLRQVGFDYWGQGTLVTVSS
VL: not shown
notes: also called 1A7[CD28]_H1.125 paired with IGKV1-39 germline VL (1F11-1A3.315 L1)
B10: 1A7_H1.106_IGKV1-39_L1 (Fab, V domains shown)
VH: B9 VH with H54R, L56D
VL: not shown
notes: also called 1A7[CD28]_H1.106 paired with IGKV1-39 germline VL (1F11-1A3.315 L1)
B11: 1A7_H1.114_IGKV1-39_L1 (Fab, V domains shown)
VH: B9 VH with S52A, H54R, L56D
VL: not shown
notes: also called 1A7[CD28]_H1.114 paired with IGKV1-39 germline VL (1F11-1A3.315 L1)
B12: 1A7_H1.111_IGKV1-39_L1 (Fab, V domains shown)
VH: B9 VH with H54R, G55S, L56D
VL: not shown
notes: also called 1A7[CD28]_H1.111 paired with IGKV1-39 germline VL (1F11-1A3.315 L1)
B13: 1A7_H1.129_IGKV1-39_L1 (Fab, V domains shown)
VH: B9 VH with H54R, G55A, L56D
VL: not shown
notes: Constant domains not specified for the assay; also called 1A7[CD28]_H1.129 paired with IGKV1-39 germline VL; 1F11-1A3.315 L1 as common light chain
B14: 1A7_H1.107_IGKV1-39_L1 (Fab, V domains shown)
VH: B9 VH with H54S, G55S, L56D, S57V
VL: not shown
notes: also called 1A7[CD28]_H1.107 paired with IGKV1-39 germline VL (1F11-1A3.315 L1)
B15: 1A7_H1.130_IGKV1-39_L1 (Fab, V domains shown)
VH: B9 VH with H54R, L56D, S57V
VL: not shown
notes: also called 1A7[CD28]_H1.130 paired with IGKV1-39 germline VL (1F11-1A3.315 L1)
B16: 1A7_H1.118_IGKV1-39_L1 (Fab, V domains shown)
VH: B9 VH with S52A, H54S, L56D, S57P
VL: not shown
notes: also called 1A7[CD28]_H1.118 paired with IGKV1-39 germline VL
B17: 1A7_H1.113_IGKV1-39_L1 (Fab, V domains shown)
VH: B9 VH with H54R, G55T, L56D
VL: not shown
notes: also called 1A7[CD28]_H1.113 paired with IGKV1-39 germline VL (1F11-1A3.315 L1)
B18: 1F11-1A3.315[Trop2]_H1.30_L1 (antibody, V domains shown)
VH: B6 VH with F29L, M34V, N52E, G59L, V102T
VL: not shown
B19: 1F11-1A3.315[Trop2]_H1.29_L1 (antibody, V domains shown)
VH: B6 VH with F29L, M34V, N52E, G59D, V102T
VL: not shown
B20: 1F11-1A3.315[Trop2]_H1.25_L1 (antibody, V domains shown)
VH: B6 VH with G59L
VL: not shown
B21: 1F11-1A3.315[Trop2]_H1.31_L1 (antibody, V domains shown)
VH: B6 VH with F29L, M34V, N52E, G59D, A103K
VL: not shown
B22: 1F11-1A3.315[Trop2]_H1.26_L1 (antibody, V domains shown)
VH: B6 VH with V102M
VL: not shown
B23: 1F11-1A3.315[Trop2]_H1.28_L1 (antibody, V domains shown)
VH: B6 VH with F29L, N52E, G59L, V102T
VL: not shown
B24: 1F11-1A3.315[Trop2]_H1.27_L1 (antibody, V domains shown)
VH: B6 VH with F29L, N52E, G59D, V102T
VL: not shown
B25: 1A7_H1.14_L1.71 (antibody, V domains shown)
VH: B9 VH with H54S, L56D
VL: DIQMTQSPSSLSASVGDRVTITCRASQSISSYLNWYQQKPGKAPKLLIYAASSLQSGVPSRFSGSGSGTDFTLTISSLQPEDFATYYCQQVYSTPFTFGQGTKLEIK
notes: also called 1A7[CD28]_H1.14_L1.71

target: T1, TROP2 (UniProt P09758 27-274, limits assumed); experiment: KD; method and format not stated
T1 construct: also called tumor-associated calcium signal transducer 2; TACSTD2
T1 sequence (looked up): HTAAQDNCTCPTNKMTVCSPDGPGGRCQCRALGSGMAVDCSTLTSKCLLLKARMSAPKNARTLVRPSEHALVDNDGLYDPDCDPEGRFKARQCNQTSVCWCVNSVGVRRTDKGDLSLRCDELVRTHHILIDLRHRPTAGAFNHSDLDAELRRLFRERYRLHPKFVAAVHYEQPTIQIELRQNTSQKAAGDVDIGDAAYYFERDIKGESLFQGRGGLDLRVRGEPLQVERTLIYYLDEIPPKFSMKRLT

Row | Binder | Kd [nM]
1 | B1 | 40
2 | B2 | 54
3 | B3 | 80
4 | B4 | 64
5 | B5 | 345

target: T1, TROP2; experiment: monovalent KD; method not stated

Row | Binder | Kd [nM]
6 | B6 | 13
7 | B7 | 2
8 | B8 | 5

target: T2, human CD28 (human, UniProt P10747 19-152, limits assumed); experiment: Octet, monovalent KD of Fab
T2 construct: also called Cluster of Differentiation 28; Tp44

Row | Binder | Kd [nM]
9 | B9 | 28
10 | B10 | 43
11 | B11 | 44
12 | B12 | 20
13 | B13 | 21
14 | B14 | 57
15 | B15 | 46
16 | B16 | 63
17 | B17 | 29

target: T3, Cyno TROP2 (Macaca fascicularis, UniProt A0A2K5UE71); experiment: not stated; bivalent format
T3 construct: Construct used in the measurement is not described; also called cynomolgus TROP2
T3 sequence (antigen): T1 sequence (looked up) with M36V, K46E, S67N, I204V

Row | Binder | Kd [nM] | koff [s⁻¹] | kon [M⁻¹ s⁻¹]
18 | B6 | 9.9 | 0.0021 | 210000
19 | B18 | 3.7 | 0.00055 | 150000
20 | B7 | 0.46 | 0.0002 | 450000
21 | B19 | 2.1 | 0.00038 | 190000
22 | B20 | 14 | 0.0027 | 190000
23 | B21 | 0.48 | 0.00014 | 300000
24 | B22 | 6.2 | 0.0015 | 250000
25 | B23 | 2.1 | 0.00055 | 270000
26 | B8 | 1.5 | 0.00053 | 340000
27 | B24 | 1.2 | 0.00047 | 390000

target: T1, TROP2; experiment: not stated; bivalent format

Row | Binder | Kd [nM] | koff [s⁻¹] | kon [M⁻¹ s⁻¹]
28 | B6 | 6.5 | 0.0012 | 190000
29 | B18 | 2.2 | 0.00037 | 170000
30 | B7 | 0.25 | 0.0001 | 410000
31 | B19 | 2.1 | 0.00029 | 150000
32 | B20 | 8.5 | 0.0014 | 170000
33 | B21 | 0.43 | 0.00013 | 300000
34 | B22 | 4.6 | 0.00088 | 190000
35 | B23 | 1.9 | 0.00036 | 210000
36 | B8 | 0.98 | 0.00033 | 330000
37 | B24 | 0.93 | 0.00028 | 330000

target: T2, human CD28; experiment: Octet, monovalent KD; format of this comparator not stated

Row | Binder | Kd [nM]
38 | B25 | 38

target: T2, human CD28; experiment: another set of experiments; monovalent Fab, method not restated (Octet for the FIG. 35 data)

Row | Binder | Kd [nM]
39 | B13 | 60 to 70
40 | B16 | ~400

target: T2, human CD28; experiment: not stated; value printed beside the name in the 'CD28 Mutations' cell, apparently a reference affinity of this domain

Row | Binder | Kd [nM]
41 | B25 | 37
